The labels stand for the following.
B1: Example 672 (SEQ ID NO: 678) (peptide)
chain: YXQGTXTSDXXIXLDXKAAXEFIEXLLEGGPSSGAPPPSGS
modifications: synthetic construct; SITE 2: note = 2-Aminoisobutyric Acid; SITE 6: note = alpha-methyl-2-fluoro-L-phenylalanine; SITE 10: note = 3-(4-Pyridyl)-L-alanine; SITE 11: note = alpha-methyl-L-serine; SITE 13: note = alpha-methyl-leucine; SITE 16: note = L-ornithine; SITE 17: note = Lysine is chemically mo
B2: Example 659 (SEQ ID NO: 665) (peptide)
chain: YXQGTXTSDXSILLDKKAQXAFIEYLEEGGPSSGAPPPEGTE
modifications: synthetic construct; SITE 2: note = 2-Aminoisobutyric Acid; SITE 6: note = alpha-methyl-2-fluoro-L-phenylalanine; SITE 10: note = 3-(4-Pyridyl)-L-alanine; SITE 17: note = Lysine is chemically modified through conjugation of the epsilon-amino group of the Lysine side chain with (gamma-Glu)2-CO-(CH2)1
B3: Example 653 (SEQ ID NO: 659) (peptide)
chain: YXQGTXTSDXSIXLDKKAQXXFIEYLQEGGPSSGEPPPEGSEE
modifications: synthetic construct; SITE 2: note = 2-Aminoisobutyric Acid; SITE 6: note = alpha-methyl-2-fluoro-L-phenylalanine; SITE 10: note = 3-(4-Pyridyl)-L-alanine; SITE 13: note = alpha-methyl-leucine; SITE 17: note = Lysine is chemically modified through conjugation of the epsilon-amino group of the Lysine
B4: Example 682 (SEQ ID NO: 688) (peptide)
chain: YXQGTXTSDXSIXLDXKAQXXFIEXLIEGGPSSGEPPPSGE
modifications: synthetic construct; SITE 2: note = 2-Aminoisobutyric Acid; SITE 6: note = alpha-methyl-2-fluoro-L-phenylalanine; SITE 10: note = 3-(4-Pyridyl)-L-alanine; SITE 13: note = alpha-methyl-leucine; SITE 16: note = L-ornithine; SITE 17: note = Lysine is chemically modified through conjugation of the epsil
B5: Example 660 (SEQ ID NO: 666) (peptide)
chain: YXQGTXTSDXSILLDKKAQXAFIEYLEEGGPSSGAPPPEGTGE
modifications: synthetic construct; SITE 2: note = 2-Aminoisobutyric Acid; SITE 6: note = alpha-methyl-2-fluoro-L-phenylalanine; SITE 10: note = 3-(4-Pyridyl)-L-alanine; SITE 17: note = Lysine is chemically modified through conjugation of the epsilon-amino group of the Lysine side chain with (gamma-Glu)2-CO-(CH2)1
B6: Example 668 (SEQ ID NO: 674) (peptide)
chain: B5 chain with Y25X, E39S, T41G
modifications: synthetic construct; SITE 2: note = 2-Aminoisobutyric Acid; SITE 6: note = alpha-methyl-2-fluoro-L-phenylalanine; SITE 10: note = 3-(4-Pyridyl)-L-alanine; SITE 17: note = Lysine is chemically modified through conjugation of the epsilon-amino group of the Lysine side chain with (gamma-Glu)2-CO-(CH2)1
B7: Example 666 (SEQ ID NO: 672) (peptide)
chain: B5 chain with Y25X, E39S, T41S
modifications: synthetic construct; SITE 2: note = 2-Aminoisobutyric Acid; SITE 6: note = alpha-methyl-2-fluoro-L-phenylalanine; SITE 10: note = 3-(4-Pyridyl)-L-alanine; SITE 17: note = Lysine is chemically modified through conjugation of the epsilon-amino group of the Lysine side chain with (gamma-Glu)2-CO-(CH2)1
B8: Example 662 (SEQ ID NO: 668) (peptide)
chain: B5 chain with E39S
modifications: synthetic construct; SITE 2: note = 2-Aminoisobutyric Acid; SITE 6: note = alpha-methyl-2-fluoro-L-phenylalanine; SITE 10: note = 3-(4-Pyridyl)-L-alanine; SITE 17: note = Lysine is chemically modified through conjugation of the epsilon-amino group of the Lysine side chain with (2-[2-(2-Amino-ethoxy))
B9: Example 669 (SEQ ID NO: 675) (peptide)
chain: B5 chain with Y25X, E39S
modifications: synthetic construct; SITE 2: note = 2-Aminoisobutyric Acid; SITE 6: note = alpha-methyl-2-fluoro-L-phenylalanine; SITE 10: note = 3-(4-Pyridyl)-L-alanine; SITE 17: note = Lysine is chemically modified through conjugation of the epsilon-amino group of the Lysine side chain with (2-[2-(2-Amino-ethoxy))
B10: Example 674 (SEQ ID NO: 680) (peptide)
chain: B5 chain with K16X, A21X, Y25X, E39S
modifications: synthetic construct; SITE 2: note = 2-Aminoisobutyric Acid; SITE 6: note = alpha-methyl-2-fluoro-L-phenylalanine; SITE 10: note = 3-(4-Pyridyl)-L-alanine; SITE 16: note = L-ornithine; SITE 17: note = Lysine is chemically modified through conjugation of the epsilon-amino group of the Lysine side chai
B11: Example 663 (SEQ ID NO: 669) (peptide)
chain: B5 chain with E27X, E39S
modifications: synthetic construct; SITE 2: note = 2-Aminoisobutyric Acid; SITE 6: note = alpha-methyl-2-fluoro-L-phenylalanine; SITE 10: note = 3-(4-Pyridyl)-L-alanine; SITE 17: note = Lysine is chemically modified through conjugation of the epsilon-amino group of the Lysine side chain with (2-[2-(2-Amino-ethoxy))
B12: Example 667 (SEQ ID NO: 673) (peptide)
chain: B5 chain with Y25X, E39S, T41E
modifications: synthetic construct; SITE 2: note = 2-Aminoisobutyric Acid; SITE 6: note = alpha-methyl-2-fluoro-L-phenylalanine; SITE 10: note = 3-(4-Pyridyl)-L-alanine; SITE 17: note = Lysine is chemically modified through conjugation of the epsilon-amino group of the Lysine side chain with (gamma-Glu)2-CO-(CH2)1
B13: Example 665 (SEQ ID NO: 671) (peptide)
chain: B5 chain with K16X, Y25X, E39S
modifications: synthetic construct; SITE 2: note = 2-Aminoisobutyric Acid; SITE 6: note = alpha-methyl-2-fluoro-L-phenylalanine; SITE 10: note = 3-(4-Pyridyl)-L-alanine; SITE 16: note = L-ornithine; SITE 17: note = Lysine is chemically modified through conjugation of the epsilon-amino group of the Lysine side chai
B14: Example 661 (SEQ ID NO: 667) (peptide)
chain: B5 chain with E27X, E39S
modifications: synthetic construct; SITE 2: note = 2-Aminoisobutyric Acid; SITE 6: note = alpha-methyl-2-fluoro-L-phenylalanine; SITE 10: note = 3-(4-Pyridyl)-L-alanine; SITE 17: note = Lysine is chemically modified through conjugation of the epsilon-amino group of the Lysine side chain with (gamma-Glu)2-CO-(CH2)1
B15: Example 664 (SEQ ID NO: 670) (peptide)
chain: B5 chain with Y25X, E39S
modifications: synthetic construct; SITE 2: note = 2-Aminoisobutyric Acid; SITE 6: note = alpha-methyl-2-fluoro-L-phenylalanine; SITE 10: note = 3-(4-Pyridyl)-L-alanine; SITE 17: note = Lysine is chemically modified through conjugation of the epsilon-amino group of the Lysine side chain with (gamma-Glu)2-CO-(CH2)1

Where a chain is given by its changes, count along the chain named.

The target of one experiment is hGLP-1R (Homo sapiens, UniProt P43220). Description: cell-based or functional assay.
Sequence of hGLP-1R (P43220 24-463): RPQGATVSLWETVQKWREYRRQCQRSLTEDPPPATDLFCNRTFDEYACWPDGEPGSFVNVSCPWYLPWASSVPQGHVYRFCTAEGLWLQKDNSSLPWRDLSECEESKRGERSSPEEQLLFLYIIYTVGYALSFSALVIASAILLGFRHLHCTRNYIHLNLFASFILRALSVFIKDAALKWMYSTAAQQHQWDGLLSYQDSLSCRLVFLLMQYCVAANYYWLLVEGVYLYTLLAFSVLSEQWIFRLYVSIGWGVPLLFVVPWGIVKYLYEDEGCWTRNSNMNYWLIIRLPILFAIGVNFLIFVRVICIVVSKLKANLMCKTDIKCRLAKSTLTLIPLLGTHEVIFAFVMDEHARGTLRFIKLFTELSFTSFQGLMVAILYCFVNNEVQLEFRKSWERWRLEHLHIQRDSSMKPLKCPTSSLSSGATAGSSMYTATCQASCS
B1 gave a Relative cAMP EC50 of 0.389 nM.

Take B2: the Relative cAMP EC50 is 1.31 nM.

Molecule B3 showed a Relative cAMP EC50 of 0.426 nM.

Turning to B4, the Relative cAMP EC50 was 0.212 nM.

Consider B5, for which the Relative cAMP EC50 worked out at 1.27 nM.

In turn, B6 returned a Relative cAMP EC50 of 0.325 nM.

In turn, B7 had a Relative cAMP EC50 of 0.337 nM.

As for B8, the Relative cAMP EC50 amounted to 0.946 nM.

On to B9, for which the Relative cAMP EC50 came out at 0.27 nM.

With B10, the Relative cAMP EC50 is 0.21 nM.

Consider B11, for which the Relative cAMP EC50 stood at 1.29 nM.

Take B12: the Relative cAMP EC50 turned out to be 0.42 nM.

In turn, B13 displayed a Relative cAMP EC50 of 0.284 nM.

B14 registered a Relative cAMP EC50 of 1.13 nM.

Take B15: the Relative cAMP EC50 turned out to be 0.356 nM.

The target of a further experiment is T1, human GIP receptor (human) (UniProt P48546).
T1 sequence (looked up): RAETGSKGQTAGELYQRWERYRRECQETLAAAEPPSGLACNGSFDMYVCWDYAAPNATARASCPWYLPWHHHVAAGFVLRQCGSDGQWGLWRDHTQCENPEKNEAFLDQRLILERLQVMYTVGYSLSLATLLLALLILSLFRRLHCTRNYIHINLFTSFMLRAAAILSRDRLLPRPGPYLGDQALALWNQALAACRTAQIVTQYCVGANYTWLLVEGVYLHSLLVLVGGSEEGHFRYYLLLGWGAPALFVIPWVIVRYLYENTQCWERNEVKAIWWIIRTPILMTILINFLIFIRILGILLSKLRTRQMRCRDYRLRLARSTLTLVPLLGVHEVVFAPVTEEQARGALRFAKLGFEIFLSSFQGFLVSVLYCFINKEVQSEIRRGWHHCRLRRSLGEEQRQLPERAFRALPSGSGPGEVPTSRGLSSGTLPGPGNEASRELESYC
The experiment is described as follows: cell-based or functional assay.
Consider B1, for which the Relative cAMP EC50 came to 0.014 nM.

For the molecule B2, the Relative cAMP EC50 stood at 0.0673 nM.

For B3, the Relative cAMP EC50 turned out to be 0.0303 nM.

In turn, B4 yielded a Relative cAMP EC50 of 0.00661 nM.

For the molecule B5, the Relative cAMP EC50 was found to be 0.0646 nM.

Take B6: the Relative cAMP EC50 was determined as 0.0198 nM.

The molecule B7 showed a Relative cAMP EC50 of 0.0203 nM.

In the case of B8, the Relative cAMP EC50 came out at 0.0704 nM.

As for B9, the Relative cAMP EC50 came to 0.0145 nM.

As to B10, the Relative cAMP EC50 was 0.0264 nM.

Turning to B11, the Relative cAMP EC50 is 0.0893 nM.

Regarding B12, the Relative cAMP EC50 was 0.0217 nM.

B13 returned a Relative cAMP EC50 of 0.0223 nM.

Regarding B14, the Relative cAMP EC50 was 0.0665 nM.

B15 had a Relative cAMP EC50 of 0.0159 nM.

A further experiment deals with human glucagon receptor (human) (UniProt P47871). The experiment is described as follows: cell-based or functional assay.
Sequence of human glucagon receptor (human) (P47871 26-477): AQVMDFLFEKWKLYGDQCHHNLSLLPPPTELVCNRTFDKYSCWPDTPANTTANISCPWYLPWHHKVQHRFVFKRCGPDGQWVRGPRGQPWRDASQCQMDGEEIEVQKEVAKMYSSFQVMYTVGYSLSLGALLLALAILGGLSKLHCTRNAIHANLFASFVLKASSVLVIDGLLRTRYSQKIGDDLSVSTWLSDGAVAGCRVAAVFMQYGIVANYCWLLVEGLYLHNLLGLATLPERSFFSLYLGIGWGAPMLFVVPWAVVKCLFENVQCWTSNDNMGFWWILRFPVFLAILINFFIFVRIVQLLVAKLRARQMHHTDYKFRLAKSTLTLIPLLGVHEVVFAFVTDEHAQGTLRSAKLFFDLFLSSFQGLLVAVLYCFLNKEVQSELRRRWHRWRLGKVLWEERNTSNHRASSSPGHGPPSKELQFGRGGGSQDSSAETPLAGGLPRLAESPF
Turning to B1, the Relative cAMP EC50 was determined as 1.19 nM.

In turn, B2 had a Relative cAMP EC50 of 5.89 nM.

The molecule B3 registered a Relative cAMP EC50 of 7.29 nM.

For B4, the Relative cAMP EC50 was 1.91 nM.

Consider B5, for which the Relative cAMP EC50 is 7.38 nM.

As to B6, the Relative cAMP EC50 came out at 2.03 nM.

B7 had a Relative cAMP EC50 of 2 nM.

As to B8, the Relative cAMP EC50 came out at 4.81 nM.

On to B9, for which the Relative cAMP EC50 is 1.76 nM.

Molecule B10 showed a Relative cAMP EC50 of 2.09 nM.

With B11, the Relative cAMP EC50 stood at 1.95 nM.

Regarding B12, the Relative cAMP EC50 stood at 2.34 nM.

The molecule B13 came in with a Relative cAMP EC50 of 2.94 nM.

As to B14, the Relative cAMP EC50 is 1.78 nM.

B15: the Relative cAMP EC50 came to 2.12 nM.

The values above are taken from US20240270821A1, “GIP/GLP1/GCG TRI-RECEPTOR AGONISTS AND USES THEREOF” (priority 2023, published 2024).
